Reference: the supplement of paper PMC7877785
± gives the uncertainty stated by the source.

Test: self-splicing fitness, log relative to wild type (ln ratio); higher = more splicing; Tetrahymena group I intron in knt gene, E. coli kanamycin selection, DiMSum; sequences stand for … in CUCUCU…GGAGGGAAAAGUUAUCAGGCAUGCACCUGGUAGCUAGUCUUUAAACCAAUAGAUUGCAUCGGUUUAAAAGGCAAGACCGUCAAAUUGCGGGAAAGGGGUCAACAGCCGUUCAGUACCAAGUCUCAGGGGAAACUUUGAGAUGGCCUUGCAAAGGGUAUGGUAAUAAGCUGACGGACAUGGUCCUAACCACGCAGCCAAGUCCUAAGUCAACAGAUCUUCUGUUGAUAUGGAUGCAGUUCACAGACUAAAUGUCGGUCGGGGAAGAUGUAUUCUUCUCAUAAGAUAUAGUCGGACCUCUCCUUAAUGGGAGCUAGCGGAUGAAGUGAUGCAACACUGGAGCCGCUGGGAACUAAUUUGUAUGCGAAAGUAUAUUGAUUAGUUUUGGAGUACUCGUGGUCG
In short: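 Six replicate transformations of E. coli BL21(DE3) with a pET-22b(+) library were grown overnight at 37°C or 30°C. The library randomised all eight P1ex-region intron nucleotides, the intron lying in the knt kanamycin-resistance gene, and plates were LB agar with or without 25 μg/mL kanamycin plus 100 μg/mL carbenicillin, 50 μM IPTG and 0.2% rhamnose. Pooled colonies were amplicon-sequenced on an Illumina HiSeq 2500, and fitness is the DiMSum error-weighted combination of wild-type-normalised replicate fold changes, kanamycin versus none.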

| Sequence | self-splicing fitness (ln) (30 °C) | self-splicing fitness (ln) (37 °C) |
| --- | --- | --- |
| ACACAGCAAUAUUACGAAAU | -2.47 ± 0.13 | -1.87 ± 0.12 |
| ACACAGCAAUAUUACGAACC | -2.57 ± 0.48 | -1.09 ± 0.45 |
| ACACAGCAAUAUUACGACCG | -0.326 ± 0.077 | 0.342 ± 0.11 |
| ACACAGCAAUAUUACGACCU | -0.472 ± 0.069 | 0.384 ± 0.092 |
| ACACAGCAAUAUUACGCAUG | -1.04 ± 0.075 | -0.692 ± 0.081 |
| ACACAGCAAUAUUACGCAUU | -2.47 ± 0.081 | -1.5 ± 0.087 |
| ACACAGCAAUAUUACGCCCA | -1.49 ± 0.075 | -0.603 ± 0.073 |
| ACACAGCAAUAUUACGCCCU | -0.215 ± 0.072 | -0.0145 ± 0.077 |
| ACACAGCAAUAUUACGGCGU | -0.67 ± 0.07 | -0.414 ± 0.093 |
| ACACAGCAAUAUUACGGCUG | -2.88 ± 0.12 | -1.42 ± 0.1 |
| ACACAGCAAUAUUACGUAGU | -2.48 ± 0.077 | -1.71 ± 0.088 |
| ACACAGCAAUAUUACGUCGC | -4.02 ± 0.21 | -2.56 ± 0.17 |
| ACACAGCAAUAUUACGUGAC | -4.1 ± 0.13 | -2.05 ± 0.11 |
| ACACAGCAAUAUUACGUUCG | -0.803 ± 0.05 | -1.13 ± 0.064 |
| ACAGAGCAAUAUUACGAAGC | -2.69 ± 0.26 | – |
| ACAGAGCAAUAUUACGACUC | -2.94 ± 0.33 | -2.47 ± 0.24 |
| ACAGAGCAAUAUUACGAUAA | -4.19 ± 0.46 | -2.51 ± 0.36 |
| ACAGAGCAAUAUUACGAUUC | -2.88 ± 0.27 | -1.72 ± 0.31 |
| ACAGAGCAAUAUUACGCAAC | – | -2.1 ± 0.41 |
| ACAGAGCAAUAUUACGCACC | -3.6 ± 0.47 | -2.04 ± 0.38 |
| ACAGAGCAAUAUUACGCCAA | -2.92 ± 0.22 | -2.78 ± 0.32 |
| ACAGAGCAAUAUUACGCCUU | -3.76 ± 0.42 | -1.9 ± 0.3 |
| ACAGAGCAAUAUUACGCGCC | -3.3 ± 0.36 | -1.83 ± 0.42 |
| ACAGAGCAAUAUUACGCGCU | – | -1.91 ± 0.2 |
| ACAGAGCAAUAUUACGCUCU | -3.01 ± 0.24 | -2.41 ± 0.49 |
| ACAGAGCAAUAUUACGCUUG | -1.62 ± 0.12 | -1.63 ± 0.17 |

| Sequence | self-splicing fitness (ln) (30 °C) | self-splicing fitness (ln) (37 °C) |
| --- | --- | --- |
| ACAGAGCAAUAUUACGGGAA | -2.54 ± 0.19 | -2.98 ± 0.34 |
| ACAGAGCAAUAUUACGGUCG | -2.29 ± 0.11 | -1.36 ± 0.16 |
| ACAGAGCAAUAUUACGGUCU | -3.77 ± 0.18 | -2.48 ± 0.15 |
| ACAGAGCAAUAUUACGUCAU | -3.71 ± 0.17 | -2.75 ± 0.27 |
| ACAGAGCAAUAUUACGUCCG | -3.65 ± 0.21 | -2.52 ± 0.27 |
| ACAGAGCAAUAUUACGUCGU | -3.11 ± 0.16 | -0.947 ± 0.15 |
| ACAGAGCAAUAUUACGUGCA | -3.73 ± 0.29 | -1.57 ± 0.25 |
| ACAGAGCAAUAUUACGUGCC | -3.54 ± 0.46 | – |
| ACAGAGCAAUAUUACGUGUC | -3.27 ± 0.22 | -2.94 ± 0.38 |
| ACAUAGCAAUAUUACGAAUU | -3.3 ± 0.2 | -1.26 ± 0.14 |
| ACAUAGCAAUAUUACGACGA | -0.942 ± 0.068 | -0.294 ± 0.078 |
| ACAUAGCAAUAUUACGAGAA | -2.62 ± 0.29 | -2.35 ± 0.25 |
| ACAUAGCAAUAUUACGAGAG | -3.57 ± 0.28 | -2.55 ± 0.18 |
| ACAUAGCAAUAUUACGAGCG | -0.74 ± 0.12 | -0.0992 ± 0.12 |
| ACAUAGCAAUAUUACGAGGA | – | -2.56 ± 0.29 |
| ACAUAGCAAUAUUACGAGUG | -1.16 ± 0.073 | -1.05 ± 0.09 |
| ACAUAGCAAUAUUACGAUCC | -1.77 ± 0.15 | -0.941 ± 0.16 |
| ACAUAGCAAUAUUACGAUCU | 0.0431 ± 0.089 | -0.196 ± 0.1 |
| ACAUAGCAAUAUUACGCAUC | -3.98 ± 0.34 | -1.3 ± 0.14 |
| ACAUAGCAAUAUUACGCCAU | -3.25 ± 0.28 | -2.08 ± 0.22 |
| ACAUAGCAAUAUUACGCCGG | -0.986 ± 0.14 | 0.077 ± 0.21 |
| ACAUAGCAAUAUUACGCGGG | -3.09 ± 0.12 | -1.64 ± 0.13 |
| ACAUAGCAAUAUUACGCUGA | -1.47 ± 0.093 | -0.74 ± 0.12 |
| ACAUAGCAAUAUUACGGACC | -1.56 ± 0.12 | -1.84 ± 0.23 |
| ACAUAGCAAUAUUACGGGUU | -2.41 ± 0.08 | -1.77 ± 0.11 |
| ACAUAGCAAUAUUACGGUAG | -4.45 ± 0.42 | -2.89 ± 0.32 |

| Sequence | self-splicing fitness (ln) (30 °C) | self-splicing fitness (ln) (37 °C) |
| --- | --- | --- |
| ACAUAGCAAUAUUACGGUCA | -0.873 ± 0.13 | 0.165 ± 0.13 |
| ACAUAGCAAUAUUACGGUUA | -1.05 ± 0.098 | -0.751 ± 0.095 |
| ACAUAGCAAUAUUACGUAGU | -2.54 ± 0.098 | -2.32 ± 0.12 |
| ACAUAGCAAUAUUACGUCAC | -3.32 ± 0.18 | -2.93 ± 0.28 |
| ACAUAGCAAUAUUACGUCAG | -2.66 ± 0.13 | -3.18 ± 0.18 |
| ACAUAGCAAUAUUACGUCCA | -1.24 ± 0.14 | -0.641 ± 0.17 |
| ACAUAGCAAUAUUACGUGCC | -2.1 ± 0.15 | -0.986 ± 0.19 |
| ACAUAGCAAUAUUACGUUAA | -3.09 ± 0.19 | -1.36 ± 0.15 |
| ACAUAGCAAUAUUACGUUAC | -1.52 ± 0.22 | – |
| ACCAAGCAAUAUUACGAACA | -2.91 ± 0.16 | -0.543 ± 0.089 |
| ACCAAGCAAUAUUACGAAUU | -3.46 ± 0.17 | -2.13 ± 0.14 |
| ACCAAGCAAUAUUACGAGCU | -1.62 ± 0.056 | -0.791 ± 0.072 |
| ACCAAGCAAUAUUACGAGGA | -3.15 ± 0.19 | -2.7 ± 0.16 |
| ACCAAGCAAUAUUACGAGGG | -2.88 ± 0.15 | -1.49 ± 0.12 |
| ACCAAGCAAUAUUACGCAUC | -3.18 ± 0.11 | -1.74 ± 0.11 |
| ACCAAGCAAUAUUACGCCAA | -1.97 ± 0.18 | -2.71 ± 0.23 |
| ACCAAGCAAUAUUACGCGCG | -1.5 ± 0.074 | -0.523 ± 0.081 |
| ACCAAGCAAUAUUACGCGUU | -1.91 ± 0.06 | -0.292 ± 0.075 |
| ACCAAGCAAUAUUACGCUUU | -2.41 ± 0.093 | -1.45 ± 0.1 |
| ACCAAGCAAUAUUACGGAUA | -2.56 ± 0.14 | -1.56 ± 0.12 |
| ACCAAGCAAUAUUACGGCGC | 0.119 ± 0.092 | -0.413 ± 0.11 |
| ACCAAGCAAUAUUACGGGGA | -2.16 ± 0.09 | -1.85 ± 0.098 |
| ACCAAGCAAUAUUACGGGUG | -1.05 ± 0.043 | -0.597 ± 0.059 |
| ACCAAGCAAUAUUACGGUAG | -4.33 ± 0.16 | -2.5 ± 0.14 |
| ACCAAGCAAUAUUACGUAAA | -2.62 ± 0.13 | -1.38 ± 0.16 |
